Data set [1] is described as follows: CHX chase, Western blot, endogenous ERα. Conditions: glycan lost; control: MCF7-WT cells, empty vector. (Immunoblotting shows a protein as a band on a membrane.)
Data set [2] can be described thus: FLAG pulldown, MS peptide reads. Particulars: glycan lost; control: MCF7-WT cells.
Data set [3] can be described thus: Western blot of ERα after GREB1 reconstitution. Conditions: glycan gained; control: GREB1-KO cells + Vec.
A short description of data set [4]: CHX chase, Western blot, GREB1-KO cells. Conditions: glycan lost; control: ERα-WT in GREB1-KO cells.
A short description of data set [5]: CHX chase, Western blot, MCF7-WT cells. Particulars: glycan lost; control: ERα-WT in MCF7-WT cells.

B1: ERα (estrogen receptor α): GREB1-KO (protein)
parent chain: MTMTLHTKASGMALLHQIQGNELEPLNRPQLKIPLERPLGEVYLDSSKPAVYNYPEGAAYEFNAAAAANAQVYGQTGLPYGPGSEAAAFGSNGLGGFPPLNSVSPSPLMLLHPPPQLSPFLQPHGQQVPYYLENEPSGYTVREAGPPAFYRPNSDNRRQGGRERLASTNDKGSMAMESAKETRYCAVCNDYASGYHYGVWSCEGCKAFFKRSIQGHNDYMCPATNQCTIDKNRRKSCQACRLRKCYEVGMMKGGIRKDRRGGRMLKHKRQRDDGEGRGEVGSAGDMRAANLWPSPLMIKRSKKNSLALSLTADQMVSALLDAEPPILYSEYDPTRPFSEASMMGLLTNLADRELVHMINWAKRVPGFVDLTLHDQVHLLECAWLEILMIGLVWRSMEHPGKLLFAPNLLLDRNQGKCVEGMVEIFDMLLATSSRFRMMNLQGEEFVCLKSIILLNSGVYTFLSSTLKSLEEKDHIHRVLDKITDTLIHLMAKAGLTLQQQHQRLAQLLLILSHIRHMSNKGMEHLYSMKCKNVVPLYDLLLEMLDAHRLHAPTSRGGASVEETDQSHLATAGSTSSHSLQKYYITGEAEGFPATV
Turning to B1, in data set [1], the degradation_or_half_life result is on record as “decreases”. Besides, the “other: ubiquitin associated with ERα” value in data set [2] is given as “increases”.

B2: ERα (estrogen receptor α): GT-WT (protein)
parent chain: B1 parent chain
For B2, the expression_or_secretion result in data set [3] was “increases”.

B3: ERα (estrogen receptor α): ERα-2M (protein)
parent chain: B1 parent chain
For B3, the degradation_or_half_life entry in data set [4] was “no change”; in data set [5] it was “decreases”.

For the origin of these results see article PMC7968844.
